{"source": "patent US20140328851A1", "binders": {"B1": {"name": "Recombinant human CETP (cholesteryl ester transfer protein) (protein)", "chain": "CSKGTSHEAGIVCRITKPALLVLNHETAKVIQTAFQRASYPDITGEKAMMLLGQVKYGLHNIQISHLSIASSQVELVEAKSIDVSIQNVSVVFKGTLKYGYTTAWWLGIDQSIDFEIDSAIDLQINTQLTCDSGRVRTDAPDCYLSFHKLLLHLQGEREPGWIKQLFTNFISFTLKLVLKGQICKEINVISNIMADFVQTRAASILSDGDIGVDISLTGDPVITASYLESHHKGHFIYKNVSEDLPLPTFSPTLLGDSRMLYFWFSERVFHSLAKVAFQDGRLMLSLMGDEFKAVLETWGFNTNQEIFQEVVGGFPSQAQVTVHCLKMPKISCQNKGVVVNSSVMVKFLFPRPDQQHSVAYTFEEDIVTTVQASYSKKKLFLSLLDFQITPKTVSNLTESSSESVQSFLQSMITAVGIPEVMSRLEVVFTALMNSKGVSLFDIINPEIITRDGFLLLQMDFGFPEHLLVDFLQSLS"}}, "key": {"[1]": {"biological_target": "High-density lipoprotein (HDL) particles (human) (UniProt P02647)", "assay": "cell-based or functional assay"}, "[2]": {"biological_target": "Low-density lipoprotein (LDL) particles (human) (UniProt P04114)", "assay": "negative-staining EM, HDL•CETP•LDL ternary complexes"}, "[3]": {"biological_target": "Low-density lipoprotein (LDL) particles (human) (UniProt P04114)", "assay": "negative-staining EM, count of LDL•CETP complexes without antibody"}}}
{"binder": "B1", "values": [{"measurement": "decrease of mean HDL particle size after 4 hours (NS-EM), HDL/CETP/LDL co-incubation without antibody", "setting": "[1]", "result": 25.8, "unit": "%"}, {"measurement": "percent of LDL particles connected to HDL particles by a CETP bridge", "setting": "[2]", "result": 25, "unit": "%"}, {"measurement": "percentage of binary complexes (LDL•CETP) without H300", "setting": "[3]", "result": 38, "unit": "%"}]}
